Test results from US8580549B2, “Esterases for separating plastics” (Henkel KGaA, priority 2005, dated 2013).

B1: pNB-Est17: para-nitrobenzyl esterase, enzyme according to Seq ID No. 1, from Bacillus subtilis (17A1), 489 amino acids (protein, listed as Bacillus subtilis)
chain: MTHQIVTTQYGKVKGTTENGVHKWKGIPYAKPPVGQWRFKAPEPPEVWEDVLDATAYGPICPQPSDLLSLSYTELPRQSEDCLYVNVFAPDTPSQNLPVMVWIHGGAFYLGAGSEPLYDGSKLAAQGEVIVVTLNYRLGPFGFLHLSSFDEAYSDNLGLLDQAAALKWVRENISAFGGDPDNVTVFGESAGGMSIAALLAMPAAKGLFQKAIMESGASRTMTKEQAASTSAAFLQVLGINEGQLDKLHTVSAEDLLKAADQLRIAEKENIFQLFFQPALDPKTLPAEPEKAISEGAASGIPLLIGTTRDEGYLFFTPDSDVHSQETLDAALEYLLGKPLAEKAADLYPRSLESQIHMMTDLLFWRPAVAYASAQSHYAPVWMYRFDWHPKKPPYNKAFHALELPFVFGNLDGLERMAKAEITDEVKQLSHTIQSAWITFAKTGNPSTEAVNWPTYHEETRETLILDSEITIENDPESEKRQKLFPSKGE
B2: pNB-Est19: para-nitrobenzyl esterase, enzyme according to Seq ID No. 2, from Bacillus licheniformis (19C5), 489 amino acids (protein, listed as Bacillus licheniformis)
chain: B1 chain
B3: pNB-Est13: para-nitrobenzyl esterase, enzyme according to Seq ID No. 12, Bacillus licheniformis DSM13 (gi 52346943) (protein, listed as Bacillus licheniformis)
chain: MYDTTVETRFGKLKGRAENGVRIFKGVPYAKPPVGDLRFREPQRMEAWEGELDAFQFGPVCPQPDGVLPESAGVQKSEDCLYLNVYAPEEADGDLPVMVWIHGGAFYRGAGSEPLYDGTQLAKQGKVIVVTINYRLGPFGFLHLSSIDDSYSSNLGLLDQIAALEWVKDNIAFFGGDRHHITVFGESAGSMSIASLLAMPKAKGLFQQAIMESGASATMSDKLAKAAAERFLRILDIDHHHLERLHDVSDQELLEAADQLRTLMGENIFELIFLPALDEKTLPLKPEVAVAKGAAKEINLLIGTNRDEGVLFFPSDSDLLPESKINEILEEYMGKEAAEAASSLYPRSLEGHVDMMTDLIFWHPSVVFASAQSRYASVFMYRFDWHADSEQPPFNKAAHGLEIPFVFGNMDILEQLTGTKAGEEAQLLAEQIQAAWVSFARSGNPSTDDVSWPDYDEDSRKTLIFDQEVAVESDPYSDKRKMLTAPNPQI

Legend:
Type in all cases: biochemical
[1] = Titrimetric Michaelis-Menten kinetics, hydrolysis of dimethyl terephthalate; details: substrate DMT; for kcat: assumes added enzyme = active enzyme; for vMax: titrimetric, 30° C., pH 9
Experimental: (§1) The enzyme activities of the esterases were measured with the titration apparatus 702 SAT (METROHM Ltd., Switzerland) for various substrates of the phthalate family (FIG. 4). The phthalates were dissolved in diethyl ether with 0.5 g Triton X100. The diethyl ether was then removed under a stream of nitrogen. 50 ml buffer (2 mM Tris/HCl, pH 9) was added, homogenized by ultrasound and used in different final concentrations (0.3 mM to 100 mM) in a total reaction volume of 2 mL (including enzyme). The reaction buffer was pre-incubated at 30° C. for 10 minutes. After addition of the enzyme, the NaOH consumption (concentration determination by triple titration with oxalic acid) at a reaction temperature of 30° C. was plotted. One unit is defined as the enzyme activity that releases 1 μmol acid per minute.
(§2) Titrimetric measurements were carried out to determine the kinetic constants vmax, kM, kcat and kcat/kM of the three para-nitrobenzyl esterases pNB-Est17, pNB-Est19 and pNB-Est13 towards different phthalates and terephthalates. The enzyme activities were determined for different substrate concentrations and evaluated according to MICHAELIS-MENTEN (see FIGS. 5 to 7). The measured kM- and vmax values and the added enzyme concentrations were used to calculate the kinetic constants (kcat and k2) and the catalytic efficiency (kcat/kM)—under the assumption that the added enzyme concentration was the same as the concentration of the active enzyme.
(§3) The data in FIGS. 5 to 7 and Tables 5 to 7 represent mean values from three independent titrimetric measurements with a relative standard deviation of less than 5%. The calculation of kcat and kcat/kM was based on the assumption that the added enzyme concentration was the same as the concentration of the active enzyme.

[2] = Titrimetric Michaelis-Menten kinetics, hydrolysis of dimethyl isophthalate; details: substrate DMIP; for kcat: assumes added enzyme = active enzyme; for vMax: titrimetric, 30° C., pH 9
Experimental: as §1, §2, §3

[3] = Titrimetric Michaelis-Menten kinetics, hydrolysis of diethyl phthalate; details: substrate DEP; for kcat: assumes added enzyme = active enzyme; for vMax: titrimetric, 30° C., pH 9
Experimental: as §1, §2, §3

[4] = Titrimetric Michaelis-Menten kinetics, hydrolysis of dimethyl phthalate; details: substrate DMP; for kcat: assumes added enzyme = active enzyme; for vMax: titrimetric, 30° C., pH 9
Experimental: as §1, §2, §3

[5] = Substrate specificity to para-nitrophenyl esters: p-NP-butyrate; details: p-NP-butyrate 0.8 mM, phosphate buffer pH 8, room temperature, 410 nm
Experimental: (§4) For the determination of chain length specificities of the investigated esterases, p-nitrophenyl esters with different chain lengths were used as the substrate for the spectroscopic measurements of activity. To the p-nitrophenyl esters dissolved in 10 mL isopropanol were added 90 mL phosphate buffer (pH 8, disodium hydrogen phosphate and potassium dihydrogen phosphate). The final concentration of the substrate was 0.8 mM. Each 990 μL buffer-substrate mixture was mixed with 10 μL of the enzyme sample and incubated at room temperature for one minute. The increase in absorption at 410 nm was then measured (UV MC^2, SAFAS, Monaco). The enzyme activity was calculated using a molar extinction coefficient of 17100 [M^−1cm^−1], wherein 1 unit was defined as the quantity of enzyme that released 1 μmol p-nitrophenol per minute.
(§5) The data in Table 3 represent mean values from three independent measurements with a relative standard deviation of less than 10%.

[6] = Substrate specificity to para-nitrophenyl esters: p-NP-palmitate; details: p-NP-palmitate 0.8 mM, phosphate buffer pH 8, room temperature, 410 nm
Experimental: as §4, §5

[7] = Substrate specificity to para-nitrophenyl esters: p-NP-stearate; details: p-NP-stearate 0.8 mM, phosphate buffer pH 8, room temperature, 410 nm
Experimental: as §4, §5

[8] = Substrate specificity to para-nitrophenyl esters: p-NP-myristate; details: p-NP-myristate 0.8 mM, phosphate buffer pH 8, room temperature, 410 nm
Experimental: as §4, §5

[9] = Substrate specificity to para-nitrophenyl esters: p-NP-caprylate; details: p-NP-caprylate 0.8 mM, phosphate buffer pH 8, room temperature, 410 nm
Experimental: as §4, §5

[10] = Titrimetric Michaelis-Menten kinetics, hydrolysis of diethyl terephthalate; details: substrate DET; for kcat: assumes added enzyme = active enzyme; for vMax: titrimetric, 30° C., pH 9
Experimental: as §1, §2, §3

[11] = Substrate specificity to para-nitrophenyl esters: p-NP-laurate; details: p-NP-laurate 0.8 mM, phosphate buffer pH 8, room temperature, 410 nm
Experimental: as §4, §5

[12] = Substrate specificity to para-nitrophenyl esters: p-NP-caproate; details: p-NP-caproate 0.8 mM, phosphate buffer pH 8, room temperature, 410 nm
Experimental: as §4, §5

[13] = Titrimetric Michaelis-Menten kinetics, hydrolysis of dibutyl phthalate; details: substrate DBP; for kcat: assumes added enzyme = active enzyme; for vMax: titrimetric, 30° C., pH 9
Experimental: as §1, §2, §3

[14] = Esterase activity by hydrolysis of bis-(p-methylbenzoic acid) ester of ethylene glycol (titration); details: titrimetric, 30° C., tris/HCl pH 9.0; for Specific Activity / vMax: mean of three measurements
Experimental: 2.4.2 Determination of the Enzymatic Activity
The cleavage of the bis-(p-methylbenzoic acid) ester of ethylene glycol catalyzed by the inventive enzymes affords 2 equivalents of 4-methylbenzoic acid and ethylene glycol (see FIG. 2).
For the preparation of the enzyme assay, the desired amount of substrate was mixed with 0.5 g Triton X100 and dissolved with heating in 50 mL ethanol (99%, denatured). Once all the substrate was dissolved, the solution was added to 50 mL buffer (2 mM tris/HCl buffer; pH 9.0) with intense stirring by Ultra-Turrax. This solution was then stirred at room temperature for at least 12 hours in order to remove a large part of the added ethanol. The thus-prepared substrate solution was immediately titrated. The reaction buffer was pre-incubated at 30° C. for 10 minutes.
Different final concentrations (0.67 mM to 50 mM) were used in a total reaction volume of 2 mL including enzyme. After addition of the enzyme, the NaOH consumption (concentration determination by triple titration with oxalic acid) with the titration apparatus 702 SAT (METROHM Ltd., Switzerland)) at a reaction temperature of 30° C. was plotted. One unit is defined as the enzyme activity that releases 1 μmol acid per minute.
In this and the subsequent examples, the following abbreviations are used for the tested esterases: enzyme according to Seq ID No. 12 (pNB-Est13), enzyme according to Seq ID No. 2 (pNB-Est19), enzyme according to Seq ID No. 1 (pNB-Est17). The data obtained for the cited esterases in Table 2 were determined by titrimetric measurements and represent mean values from: three independent measurements with a relative standard deviation of less than 5%.

[15] = Substrate specificity to para-nitrophenyl esters: p-NP-caprate; details: p-NP-caprate 0.8 mM, phosphate buffer pH 8, room temperature, 410 nm
Experimental: as §4, §5

Molecule | kcat [1] | vMax [1] | kcat [2] | vMax [2] | kcat [3] | vMax [3] | kcat [4] | vMax [4] | Specific Activity [5] | Specific Activity [6] | Specific Activity [7] | Specific Activity [8] | Specific Activity [9] | kcat [10] | vMax [10] | Specific Activity [11] | Specific Activity [12] | vMax [13] | kcat [14] | Specific Activity [14] | also measured
B1 | 60028 s⁻¹ | 18.52 U/mg | 38880 s⁻¹ | 11.99 U/mg | 31065 s⁻¹ | 9.57 U/mg | 45672 s⁻¹ | 14.09 U/mg | 196.3 U/mg | <1 U/mg | <1 U/mg | <1 U/mg | 73.2 U/mg | 90998 s⁻¹ | 28.06 U/mg | 3.4 U/mg | 102.7 U/mg | 48.03 U/mg | 5177 s⁻¹ | 1.60 µmol/min/mg | kcat [13]: 155676 s⁻¹; vMax [14]: 0.642 µmol/min; Specific Activity [15]: 10.2 U/mg
B2 | 50718 s⁻¹ | 15.69 U/mg | 27637 s⁻¹ | 8.55 U/mg | 23265 s⁻¹ | 7.20 U/mg | 50970 s⁻¹ | 15.76 U/mg | 234.8 U/mg | <1 U/mg | <1 U/mg | 1.3 U/mg | 83.6 U/mg | 99411 s⁻¹ | 30.79 U/mg | 4.0 U/mg | 249.6 U/mg | 40.69 U/mg | 3838 s⁻¹ | 1.19 µmol/min/mg | vMax [14]: 0.385 µmol/min; Specific Activity [15]: 3.9 U/mg
B3 | 14784 s⁻¹ | 4.53 U/mg | 90267 s⁻¹ | 27.67 U/mg | 10468 s⁻¹ | 3.21 U/mg | 29735 s⁻¹ | 9.11 U/mg | 22.4 U/mg | <1 U/mg | <1 U/mg | <1 U/mg | 13.0 U/mg | 12574 s⁻¹ | 3.57 U/mg | 1.3 U/mg | 50.5 U/mg | 2.87 U/mg | 9358 s⁻¹ | 2.87 µmol/min/mg | kcat [13]: 9356 s⁻¹; vMax [14]: 1.801 µmol/min; Specific Activity [15]: 4.4 U/mg
